Assay results: patent US20200345898

Target: T1, lysyl oxidase (LOX), recombinant human, in supernatant of doxycycline-induced HEK293 (Flp-In T-REx 293) cells
T1 chain: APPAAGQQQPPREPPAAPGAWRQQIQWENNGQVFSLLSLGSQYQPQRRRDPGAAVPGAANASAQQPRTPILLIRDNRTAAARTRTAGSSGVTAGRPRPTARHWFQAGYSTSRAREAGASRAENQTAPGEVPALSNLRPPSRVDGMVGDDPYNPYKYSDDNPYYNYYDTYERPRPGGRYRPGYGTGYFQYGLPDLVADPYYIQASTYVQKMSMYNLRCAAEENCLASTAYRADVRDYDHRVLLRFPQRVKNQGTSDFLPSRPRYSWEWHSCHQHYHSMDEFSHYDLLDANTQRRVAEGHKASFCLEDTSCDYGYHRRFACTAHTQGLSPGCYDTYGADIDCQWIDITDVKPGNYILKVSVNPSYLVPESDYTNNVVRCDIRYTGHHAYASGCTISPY

B1: bone morphogenetic protein-1 (BMP1), recombinant human, in supernatant of doxycycline-induced HEK293 (Flp-In T-REx 293) cells (protein)
chain: AATSRPERVWPDGVIPFVIGGNFTGSQRAVFRQAMRHWEKHTCVTFLERTDEDSYIVFTYRPCGCCSYVGRRGGGPQAISIGKNCDKFGIVVHELGHVVGFWHEHTRPDRDRHVSIVRENIQPGQEYNFLKMEPQEVESLGETYDFDSIMHYARNTFSRGIFLDTIVPKYEVNGVKPPIGQRTRLSKGDIAQARKLYKCPACGETLQDSTGNFSSPEYPNGYSAHMHCVWRISVTPGEKIILNFTSLDLYRSRLCWYDYVEVRDGFWRKAPLRGRFCGSKLPEPIVSTDSRLWVEFRSSSNWVGKGFFAVYEAICGGDVKKDYGHIQSPNYPDDYRPSKVCIWRIQVSEGFHVGLTFQSFEIERHDSCAYDYLEVRDGHSESSTLIGRYCGYEKPDDIKSTSSRLWLKFVSDGSINKAGFAVNFFKEVDECSRPNRGGCEQRCLNTLGSYKCSCDPGYELAPDKRRCEAACGGFLTKLNGSITSPGWPKEYPPNKNCIWQLVAPTQYRISLQFDFFETEGNDVCKYDFVEVRSGLTADSKLHGKFCGSEKPEVITSQYNNMRVEFKSDNTVSKKGFKAHFFSEKRPALQPPRGRPHQLKFRVQKRNRTPQ
  LOX enzymatic activity, fluorometric assay: the induction of the expression of LOX promoted a strong increase in LOX enzymatic activity, that was further augmented upon incubation with BMP1 supernatants in a time-dependent manner
  LOX immunoreactivity by western blotting in supernatants of fibroblast cultures, one day: the combination of recombinant LOX and BMP1 resulted in complete proteolysis of the pro-LOX
